Reference: PMC11194110, “Single-molecule imaging reveals a direct role of CTCF’s zinc fingers in SA interaction and cluster-dependent RNA recruitment” (Nucleic Acids Research, 2024)

What was measured:
CTCF WT (human) [1] = test: single-molecule DNA curtains (TIRF); conditions: 300 mM NaCl wash; DNA curtains: CTCF 10 nM (ZF9-CT 50 nM, ZF4-7 200 nM) or SA 100 nM; load at 50 mM NaCl, wash at 300 mM NaCl; buffer, pH and temperature not given in material
CTCF WT (human) [2] = test: single-molecule DNA curtains lifetime; conditions: DNA curtains: CTCF 10 nM (ZF9-CT 50 nM, ZF4-7 200 nM) or SA 100 nM, load at 50 mM NaCl, wash at 300 mM NaCl, buffer, pH and temperature not given in material; for binding signal (min (lifetime)): 300 mM NaCl wash, photobleaching corrected
[3] = test system: CTCF WT;SA1 (human;human?); test: single-molecule DNA curtains (TIRF); conditions: preincubated 10 nM CTCF, 100 nM SA1; 300 mM NaCl wash; DNA curtains: CTCF 10 nM (ZF9-CT 50 nM, ZF4-7 200 nM) or SA 100 nM; load at 50 mM NaCl, wash at 300 mM NaCl; buffer, pH and temperature not given in material
[4] = test system: CTCF WT;SA2 (human;human?); test: single-molecule DNA curtains (TIRF); conditions: preincubated 10 nM CTCF, 100 nM SA2; 300 mM NaCl wash; DNA curtains: CTCF 10 nM (ZF9-CT 50 nM, ZF4-7 200 nM) or SA 100 nM; load at 50 mM NaCl, wash at 300 mM NaCl; buffer, pH and temperature not given in material
[5] = test system: T1, CTCF ZF4-7 del1-350;del461-727 (human); test: single-molecule DNA curtains lifetime; conditions: not enriched on CBSs; DNA curtains: CTCF 10 nM (ZF9-CT 50 nM, ZF4-7 200 nM) or SA 100 nM; load at 50 mM NaCl, wash at 300 mM NaCl; buffer, pH and temperature not given in material
T1 sequence: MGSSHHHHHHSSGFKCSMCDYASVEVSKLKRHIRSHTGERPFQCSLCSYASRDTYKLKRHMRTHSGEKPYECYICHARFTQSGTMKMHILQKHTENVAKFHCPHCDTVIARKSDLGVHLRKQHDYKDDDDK

CTCF ZF9-CT (human) = test system: T2, CTCF ZF9-CT (human); test: single-molecule DNA curtains lifetime; conditions: not enriched on CBSs (negative enrichment); prefers AT-rich DNA; DNA curtains: CTCF 10 nM (ZF9-CT 50 nM, ZF4-7 200 nM) or SA 100 nM; load at 50 mM NaCl, wash at 300 mM NaCl; buffer, pH and temperature not given in material
T2 sequence: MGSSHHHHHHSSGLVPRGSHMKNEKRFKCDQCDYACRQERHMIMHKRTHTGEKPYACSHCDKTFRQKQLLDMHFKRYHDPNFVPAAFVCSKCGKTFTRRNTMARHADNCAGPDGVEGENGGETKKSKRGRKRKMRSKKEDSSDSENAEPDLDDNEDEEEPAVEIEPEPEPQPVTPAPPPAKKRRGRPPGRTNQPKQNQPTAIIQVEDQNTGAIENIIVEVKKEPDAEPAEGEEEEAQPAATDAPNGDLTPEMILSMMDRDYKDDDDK

[6] = test system: CTCF ΔRBR (ΔRBR+ΔZF1,10,11) (human); test: single-molecule DNA curtains lifetime; conditions: 300 mM NaCl wash; CBS enrichment similar to WT; DNA curtains: CTCF 10 nM (ZF9-CT 50 nM, ZF4-7 200 nM) or SA 100 nM; load at 50 mM NaCl, wash at 300 mM NaCl; buffer, pH and temperature not given in material
[7] = target: CTCF WT (human CCCTC-binding factor, full-length) (human) (UniProt P49711); test: single-molecule photobleaching step counting on DNA curtains; labeled CTCF on λ-DNA at 50 mM NaCl without prior removal of unspecifically bound CTCF, 25 ng/μl 100 bp Cy3-RNA added; bleaching steps counted at positions of captured RNA; both lasers at 140 mW
[8] = target: CTCF ΔNC (truncation mutant missing both CTCF termini, containing all 11 ZFs) (human); test: as above
[9] = target: T3, CTCF WT (human CCCTC-binding factor, full-length) (human, UniProt P49711 1-727, fluorescent dye (AF568, Atto 643 or Alexa Fluor 660) on the Halo-tag through a chloroalkane linker; unlabeled in the SA transcription experiments); test: single-molecule DNA curtains (TIRF microscopy), combined loading; 100 or 400 nM SA-LD655 preincubated with 10 nM CTCF in CTCF 100 buffer (40 mM Tris pH 7.5, 100 mM NaCl, 1 mM MgCl2, 1 mg/ml BSA, 1 mM DTT) 5 min at RT; 30 s on λ-DNA with 4× CBSs in 50 mM NaCl, then 3 min (lifetimes: up to 15 min) in 300 mM NaCl; SA read at CBS-bound CTCF (enrichment, lifetime); conditions: both partners purified
T3 construct: 11 zinc fingers and two unstructured termini; also called AF-568-CTCF-WT; AF568-CTCF; source: High Five (Hi5) insect cells, purified (Ni-NTA, heparin, Superose 6); not shown: Halo, N-terminal, kept
T3 sequence (looked up): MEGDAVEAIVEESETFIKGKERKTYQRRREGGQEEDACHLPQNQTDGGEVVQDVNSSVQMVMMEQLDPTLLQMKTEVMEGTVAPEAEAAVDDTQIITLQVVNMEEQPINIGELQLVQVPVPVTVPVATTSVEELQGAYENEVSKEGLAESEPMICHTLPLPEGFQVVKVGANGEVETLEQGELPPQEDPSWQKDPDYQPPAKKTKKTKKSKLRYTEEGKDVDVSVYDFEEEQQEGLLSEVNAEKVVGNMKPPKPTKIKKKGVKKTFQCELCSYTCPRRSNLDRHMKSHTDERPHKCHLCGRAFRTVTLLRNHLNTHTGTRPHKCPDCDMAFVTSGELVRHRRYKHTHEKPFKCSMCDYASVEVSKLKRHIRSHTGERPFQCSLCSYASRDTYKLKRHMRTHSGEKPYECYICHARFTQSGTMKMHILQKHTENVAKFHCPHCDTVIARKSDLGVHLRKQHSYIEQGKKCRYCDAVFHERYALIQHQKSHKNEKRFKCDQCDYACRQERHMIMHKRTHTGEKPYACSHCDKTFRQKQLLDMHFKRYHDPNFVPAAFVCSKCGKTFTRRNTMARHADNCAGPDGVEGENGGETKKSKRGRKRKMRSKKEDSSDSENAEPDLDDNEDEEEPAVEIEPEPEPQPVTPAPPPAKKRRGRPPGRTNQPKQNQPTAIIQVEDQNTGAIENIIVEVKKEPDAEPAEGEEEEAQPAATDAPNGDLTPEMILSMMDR

1xT7-1xCBS λ-DNA
binding signal (fold enrichment on CBS) (CTCF WT (human) [1]): 7 | binding signal (min (lifetime)) (CTCF WT (human) [2]): 50

2xT7-4xCBSs λ-DNA
binding signal (fold enrichment on CBS) (CTCF WT (human) [1]): 16 | binding signal (fold SA1 enrichment on CBS) [3]: 10 | binding signal (fold SA2 enrichment on CBS) [4]: 8 | binding signal (min (lifetime)) (CTCF WT (human) [2]): 50 | binding signal (fold reduced lifetime vs WT) [5]: 90 | binding signal (fold reduced lifetime vs WT) (CTCF ZF9-CT (human)): 25 | binding signal (fold reduced lifetime vs WT) [6]: 2.5

CTCF WT (human CCCTC-binding factor, full-length) (from UniProt P49711 1-727) (natural protein)
photobleaching steps in CTCF-RNA clusters [7]: 8.8 steps | stoichiometry N (CTCF molecules) [7]: 17

CTCF ΔNC (truncation mutant missing both CTCF termini, containing all 11 ZFs) (domain or fragment)
photobleaching steps in clusters on DNA (bleaching steps) [8]: 9

λ-DNA (non-CBS)
binding signal (fold lower lifetime than on CBS) (CTCF WT (human) [2]; coats DNA at 50 mM NaCl, mostly washed off at 300 mM): > 40

B1: Cohesin subunit SA1 (natural protein, UniProt Q8WVM7 1-1258, looked up)
chain: MITSELPVLQDSTNETTAHSDAGSELEETEVKGKRKRGRPGRPPSTNKKPRKSPGEKSRIEAGIRGAGRGRANGHPQQNGEGEPVTLFEVVKLGKSAMQSVVDDWIESYKQDRDIALLDLINFFIQCSGCRGTVRIEMFRNMQNAEIIRKMTEEFDEDSGDYPLTMPGPQWKKFRSNFCEFIGVLIRQCQYSIIYDEYMMDTVISLLTGLSDSQVRAFRHTSTLAAMKLMTALVNVALNLSIHQDNTQRQYEAERNKMIGKRANERLELLLQKRKELQENQDEIENMMNSIFKGIFVHRYRDAIAEIRAICIEEIGVWMKMYSDAFLNDSYLKYVGWTLHDRQGEVRLKCLKALQSLYTNRELFPKLELFTNRFKDRIVSMTLDKEYDVAVEAIRLVTLILHGSEEALSNEDCENVYHLVYSAHRPVAVAAGEFLHKKLFSRHDPQAEEALAKRRGRNSPNGNLIRMLVLFFLESELHEHAAYLVDSLWESSQELLKDWECMTELLLEEPVQGEEAMSDRQESALIELMVCTIRQAAEAHPPVGRGTGKRVLTAKERKTQIDDRNKLTEHFIITLPMLLSKYSADAEKVANLLQIPQYFDLEIYSTGRMEKHLDALLKQIKFVVEKHVESDVLEACSKTYSILCSEEYTIQNRVDIARSQLIDEFVDRFNHSVEDLLQEGEEADDDDIYNVLSTLKRLTSFHNAHDLTKWDLFGNCYRLLKTGIEHGAMPEQIVVQALQCSHYSILWQLVKITDGSPSKEDLLVLRKTVKSFLAVCQQCLSNVNTPVKEQAFMLLCDLLMIFSHQLMTGGREGLQPLVFNPDTGLQSELLSFVMDHVFIDQDEENQSMEGDEEDEANKIEALHKRRNLLAAFSKLIIYDIVDMHAAADIFKHYMKYYNDYGDIIKETLSKTRQIDKIQCAKTLILSLQQLFNELVQEQGPNLDRTSAHVSGIKELARRFALTFGLDQIKTREAVATLHKDGIEFAFKYQNQKGQEYPPPNLAFLEVLSEFSSKLLRQDKKTVHSYLEKFLTEQMMERREDVWLPLISYRNSLVTGGEDDRMSVNSGSSSSKTSSVRNKKGRPPLHKKRVEDESLDNTWLNRTDTMIQTPGPLPAPQLTSTVLRENSRPMGDQIQEPESEHGSEPDFLHNPQMQISWLGQPKLEDLNRKDRTGMNYMKVRTGVRHAVRGLMEEDAEPIFEDVMMSSRSQLEDMNEEFEDTMVIDLPPSRNRRERAELRPDFFDSAAIIEDDSGFGMPMF
modifications: LD655-CoA dye on the ybbR-tag (Sfp labeling)
notes: cohesin subunit SA1; also called SA-LD655; source: High Five (Hi5) insect cells, purified (Ni-NTA, heparin, Superose 6); not shown: ybbR, C-terminal, kept
fold enrichment on the CBSs with CTCF [9]: 10 fold

B2: Cohesin subunit SA2 (natural protein, UniProt Q8N3U4 1-1231, looked up)
chain: MIAAPEIPTDFNLLQESETHFSSDTDFEDIEGKNQKQGKGKTCKKGKKGPAEKGKGGNGGGKPPSGPNRMNGHHQQNGVENMMLFEVVKMGKSAMQSVVDDWIESYKHDRDIALLDLINFFIQCSGCKGVVTAEMFRHMQNSEIIRKMTEEFDEDSGDYPLTMAGPQWKKFKSSFCEFIGVLVRQCQYSIIYDEYMMDTVISLLTGLSDSQVRAFRHTSTLAAMKLMTALVNVALNLSINMDNTQRQYEAERNKMIGKRANERLELLLQKRKELQENQDEIENMMNAIFKGVFVHRYRDAIAEIRAICIEEIGIWMKMYSDAFLNDSYLKYVGWTMHDKQGEVRLKCLTALQGLYYNKELNSKLELFTSRFKDRIVSMTLDKEYDVAVQAIKLLTLVLQSSEEVLTAEDCENVYHLVYSAHRPVAVAAGEFLYKKLFSRRDPEEDGMMKRRGRQGPNANLVKTLVFFFLESELHEHAAYLVDSMWDCATELLKDWECMNSLLLEEPLSGEEALTDRQESALIEIMLCTIRQAAECHPPVGRGTGKRVLTAKEKKTQLDDRTKITELFAVALPQLLAKYSVDAEKVTNLLQLPQYFDLEIYTTGRLEKHLDALLRQIRNIVEKHTDTDVLEACSKTYHALCNEEFTIFNRVDISRSQLIDELADKFNRLLEDFLQEGEEPDEDDAYQVLSTLKRITAFHNAHDLSKWDLFACNYKLLKTGIENGDMPEQIVIHALQCTHYVILWQLAKITESSSTKEDLLRLKKQMRVFCQICQHYLTNVNTTVKEQAFTILCDILMIFSHQIMSGGRDMLEPLVYTPDSSLQSELLSFILDHVFIEQDDDNNSADGQQEDEASKIEALHKRRNLLAAFCKLIVYTVVEMNTAADIFKQYMKYYNDYGDIIKETMSKTRQIDKIQCAKTLILSLQQLFNEMIQENGYNFDRSSSTFSGIKELARRFALTFGLDQLKTREAIAMLHKDGIEFAFKEPNPQGESHPPLNLAFLDILSEFSSKLLRQDKRTVYVYLEKFMTFQMSLRREDVWLPLMSYRNSLLAGGDDDTMSVISGISSRGSTVRSKKSKPSTGKRKVVEGMQLSLTEESSSSDSMWLSREQTLHTPVMMQTPQLTSTIMREPKRLRPEDSFMSVYPMQTEHHQTPLDYNRRGTSLMEDDEEPIVEDVMMSSEGRIEDLNEGMDFDTMDIDLPPSKNRRERTELKPDFFDPASIMDESVLGVSMF
modifications: LD655-CoA dye on the ybbR-tag (Sfp labeling)
notes: cohesin subunit SA2; also called SA-LD655; source: High Five (Hi5) insect cells, purified (Ni-NTA, heparin, Superose 6); not shown: ybbR, C-terminal, kept
fold enrichment on the CBSs with CTCF [9]: 8 fold
